Source: publication PMC5394233, “Structural and functional analysis of the human POT1-TPP1 telomeric complex” (Nature Communications, 2017)
Where a chain is given by its changes, count along the chain named.

Tests used:
Assay in all cases: fluorescence polarization; FP: 20 mM Hepes pH 7.5, 100 mM KCl, 2 mM MgCl2, 1 mM EDTA, 2 mM DTT, 1 mg/ml BSA, 5% glycerol, 75 nM polyT50 competitor, 2.5 nM probe, room temperature 30 min
[1] = biological target: flPOT1 C591W;TPP1(87) (Homo sapiens;Homo sapiens, UniProt Q9NUX5;Q96AP0 1-634;1-458, C591W|); conditions: protein: recombinant;recombinant, tags: N-terminal His6-pMocr, TEV-cleaved;N-terminal His6-MBP, copies: 1;1, label: 5' 6-FAM, single strand
Chain of flPOT1 C591W;TPP1(87) (Q9NUX5 whole entry C591W, chain 1 of 2): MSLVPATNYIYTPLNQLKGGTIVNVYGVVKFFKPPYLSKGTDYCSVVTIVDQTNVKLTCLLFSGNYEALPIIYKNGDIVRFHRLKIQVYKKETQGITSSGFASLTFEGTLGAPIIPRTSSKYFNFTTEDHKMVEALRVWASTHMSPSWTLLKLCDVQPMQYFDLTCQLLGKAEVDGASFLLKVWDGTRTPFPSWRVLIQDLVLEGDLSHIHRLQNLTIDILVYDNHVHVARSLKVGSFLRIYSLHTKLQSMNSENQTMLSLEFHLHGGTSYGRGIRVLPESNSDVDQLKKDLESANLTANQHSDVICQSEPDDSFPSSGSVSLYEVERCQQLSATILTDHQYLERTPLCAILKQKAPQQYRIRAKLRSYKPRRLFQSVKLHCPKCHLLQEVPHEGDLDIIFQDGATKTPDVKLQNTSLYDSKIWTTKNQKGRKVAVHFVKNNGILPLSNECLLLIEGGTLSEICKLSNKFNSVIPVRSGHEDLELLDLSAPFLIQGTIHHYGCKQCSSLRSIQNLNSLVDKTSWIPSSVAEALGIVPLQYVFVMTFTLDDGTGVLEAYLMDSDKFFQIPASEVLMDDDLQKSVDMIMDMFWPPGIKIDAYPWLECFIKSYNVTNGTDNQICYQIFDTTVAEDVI
Chain of flPOT1 C591W;TPP1(87) (Q96AP0 whole entry, chain 2 of 2): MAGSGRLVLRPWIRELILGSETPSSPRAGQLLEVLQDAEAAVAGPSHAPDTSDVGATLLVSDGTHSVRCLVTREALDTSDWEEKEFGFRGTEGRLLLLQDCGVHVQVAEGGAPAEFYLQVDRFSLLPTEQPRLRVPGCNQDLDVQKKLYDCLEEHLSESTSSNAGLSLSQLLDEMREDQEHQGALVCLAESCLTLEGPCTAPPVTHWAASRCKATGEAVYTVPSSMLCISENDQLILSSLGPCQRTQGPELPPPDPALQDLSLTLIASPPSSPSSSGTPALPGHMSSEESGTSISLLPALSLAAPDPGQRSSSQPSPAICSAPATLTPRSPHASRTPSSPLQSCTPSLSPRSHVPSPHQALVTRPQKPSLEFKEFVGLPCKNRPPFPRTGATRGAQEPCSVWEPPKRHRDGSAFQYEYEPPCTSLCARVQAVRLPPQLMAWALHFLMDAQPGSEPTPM

[2] = biological target: T1, POT1C (Homo sapiens, UniProt Q9NUX5 330-634); conditions: protein: recombinant; tags: N-terminal His6-pMocr, TEV-cleaved; label: 5' 6-FAM; single strand
T1 sequence: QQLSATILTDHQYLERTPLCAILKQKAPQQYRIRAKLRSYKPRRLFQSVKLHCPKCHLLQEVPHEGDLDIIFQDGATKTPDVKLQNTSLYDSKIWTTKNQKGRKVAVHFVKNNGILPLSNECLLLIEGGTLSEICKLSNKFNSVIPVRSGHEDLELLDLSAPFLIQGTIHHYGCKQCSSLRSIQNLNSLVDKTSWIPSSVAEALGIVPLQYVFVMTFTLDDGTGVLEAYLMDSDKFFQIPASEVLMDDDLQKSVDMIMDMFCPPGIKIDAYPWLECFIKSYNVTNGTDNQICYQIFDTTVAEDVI

[3] = biological target: flPOT1 Q623H;TPP1(87) (Homo sapiens;Homo sapiens, UniProt Q9NUX5;Q96AP0 1-634;1-458, Q623H|); conditions: protein: recombinant;recombinant, tags: N-terminal His6-pMocr, TEV-cleaved;N-terminal His6-MBP, copies: 1;1, label: 5' 6-FAM, single strand
Chain of flPOT1 Q623H;TPP1(87) (Q9NUX5 whole entry Q623H, chain 1 of 2): as the sequence (Q9NUX5 whole entry C591W, chain 1 of 2) above, with W591C, Q623H counted along it
Chain of flPOT1 Q623H;TPP1(87) (Q96AP0 whole entry, chain 2 of 2): as the sequence (Q96AP0 whole entry, chain 2 of 2) above

[4] = biological target: T2, flPOT1 P446Q (Homo sapiens, UniProt Q9NUX5 1-634, P446Q); conditions: protein: recombinant; tags: N-terminal His6-pMocr, TEV-cleaved; label: 5' 6-FAM; single strand
T2 sequence: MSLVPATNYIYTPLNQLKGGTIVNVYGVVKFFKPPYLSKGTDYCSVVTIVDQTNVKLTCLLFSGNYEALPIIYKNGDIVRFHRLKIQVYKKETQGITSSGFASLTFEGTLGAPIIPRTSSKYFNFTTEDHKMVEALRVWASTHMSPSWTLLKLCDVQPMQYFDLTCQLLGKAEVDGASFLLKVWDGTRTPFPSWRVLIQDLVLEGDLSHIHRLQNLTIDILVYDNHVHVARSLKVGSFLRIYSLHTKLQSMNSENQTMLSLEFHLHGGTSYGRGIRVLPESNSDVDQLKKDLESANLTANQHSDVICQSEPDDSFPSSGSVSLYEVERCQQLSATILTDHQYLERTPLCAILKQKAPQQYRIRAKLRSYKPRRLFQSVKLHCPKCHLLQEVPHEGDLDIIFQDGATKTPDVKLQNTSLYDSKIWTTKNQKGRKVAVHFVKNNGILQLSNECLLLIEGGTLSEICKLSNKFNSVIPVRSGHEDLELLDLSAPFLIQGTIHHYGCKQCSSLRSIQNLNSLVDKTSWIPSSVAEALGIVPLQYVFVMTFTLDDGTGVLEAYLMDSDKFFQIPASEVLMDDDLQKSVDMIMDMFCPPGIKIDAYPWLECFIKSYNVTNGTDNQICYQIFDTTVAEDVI

[5] = biological target: flPOT1 P475L;TPP1(87) (Homo sapiens;Homo sapiens, UniProt Q9NUX5;Q96AP0 1-634;1-458, P475L|); conditions: protein: recombinant;recombinant, tags: N-terminal His6-pMocr, TEV-cleaved;N-terminal His6-MBP, copies: 1;1, label: 5' 6-FAM, single strand
Chain of flPOT1 P475L;TPP1(87) (Q9NUX5 whole entry P475L, chain 1 of 2): as the sequence (Q9NUX5 whole entry C591W, chain 1 of 2) above, with P475L, W591C counted along it
Chain of flPOT1 P475L;TPP1(87) (Q96AP0 whole entry, chain 2 of 2): as the sequence (Q96AP0 whole entry, chain 2 of 2) above

[6] = biological target: flPOT1 P446Q;TPP1(87) (Homo sapiens;Homo sapiens, UniProt Q9NUX5;Q96AP0 1-634;1-458, P446Q|); conditions: protein: recombinant;recombinant, tags: N-terminal His6-pMocr, TEV-cleaved;N-terminal His6-MBP, copies: 1;1, label: 5' 6-FAM, single strand
Chain of flPOT1 P446Q;TPP1(87) (Q96AP0 whole entry, chain 2 of 2, one chain of several): as the sequence (Q96AP0 whole entry, chain 2 of 2) above

[7] = biological target: T3, flPOT1 WT (Homo sapiens, UniProt Q9NUX5 1-634); conditions: protein: recombinant; tags: N-terminal His6-pMocr, TEV-cleaved; label: 5' 6-FAM; single strand
T3 sequence: T2 sequence with Q446P

TTAGGGTTAGGGTTAGGG (ssDNA) [telomeric 18mer (TTAGGG)3]
Kd [1]: 15.6 ± 2.5 nM
binding result [2]: no binding
Kd [3]: 8.9 ± 1 nM
Kd [4]: ~20 nM
Kd [5]: 10.7 ± 1.4 nM
Kd [6]: 10.3 ± 1 nM
Kd [7]: ~20 nM
